{"source": "patent US12673108B2", "about": "(Oxford University Innovation Limited, priority 2021, dated 2026)", "key": {"[1]": {"assay": "Toxicological assessment of peptide-PMO (urinary KIM-1, NGAL; serum BUN)", "assay_type": "in vivo, C57BL/6 mice", "conditions": "for urinary KIM-1 levels: single dose 30 mg/kg (2.5-50 mg/kg); for urinary KIM-1 levels / urinary NGAL levels: urine Day 2 and Day 7, normalised to urinary creatinine; for urinary NGAL levels: single dose 30 mg/kg", "method": "Female C57BL/6 mice aged 8-10 weeks were administered a single 30 mg/kg dose of peptide-PMO in 0.9% saline by bolus intravenous tail vein injection. Urine was non-invasively collected under chilled conditions at Day 2 and Day 7 post-administration following 20 hours housing in metabolic cages (Tecniplast, UK). Serum was collected from jugular vein at Day 7 at necropsy, as was tibialis anterior, diaphragm and heart tissue.\nThe same procedure was followed at different single dosage amounts ranging from 2.5 mg/kg up to 50 mg/kg of peptide-PMO in 0.9% saline by intravenous tail vein injection.\nUrinary levels of KIM-1 (Kidney injury molecule-1) and NGAL (Neutrophil Gelatinase-Associated Lipocalin) were quantified by ELISA (KIM-1 R&D cat #MKM100, NGAL R&D cat #MLCN20) following appropriate dilution of urine to fit standard curves. Values were normalised to urinary creatinine levels that were quantified at MRC Harwell Institute, Mary Lyon Centre, Oxfordshire, UK. Serum blood urea nitrogen levels were quantified at MRC Harwell Institute, Mary Lyon Centre, Oxfordshire, UK.\nAll levels were quanitifed on an AU680 Clinical Chemistry Analyser, Beckman Coulter. Quantification of exon skipping efficacy was determined by quantitative RT-PCR of exon 23 skipped and unskipped transcripts and expressed as percentage of skipped versus total (skipped and unskipped) transcripts (see Table 7 for sequences)."}, "[2]": {"tested_on": "dystrophin", "conditions": "in vivo; cited from earlier work"}, "[3]": {"tested_on": "human hepatocytes", "assay": "Hepatocyte cell viability (fluorescent-based assay)", "conditions": "40 uM", "method": "Immortalized myoblasts from healthy individual or DM1 patient with 2600 CTG repeats were cultivated in a growth medium consisting of a mix of M199: DMEM (1:4 ratio; Life technologies) supplemented with 20% FBS (Life technologies), 50 µg/ml gentamycin (Life technologies), 25 pg/ml fetuin, 0.5 ng/ml bFGF, 5 ng/ml EGF and 0.2 pg/ml dexamethasone (Sigma-Aldrich). Myogenic differentiation was induced by switching confluent cell cultures to DMEM medium supplemented with 5 pg/ml insulin (Sigma-Aldrich) for myoblasts. For treatment, WT or DM1 cells are differentiated for 4 days. Then, medium was changed with fresh differentiation medium with peptide-PMOs at a 1, 2, 5 10, 20 or 40 pM concentration. Cells were harvested for analysis 48 h after treatment. Cell viability was quantified in after 2 days of transfection of peptide-PMOs at 40 uM in human hepatocytes or at a 1, 2, 5 10, 20 or 40 pM concentration in human myoblasts using a fluorescent-based assay (Promega)."}, "[4]": {"assay": "Recovery times of mice after injection with peptide-PMOCAG7 conjugates", "assay_type": "in vivo, C57BL6 mice", "conditions": "12.5 mg/kg; HSA-LR mice; age 8-12 weeks", "method": "Animal experiments and ASO injections. Experiments were carried out in the University of Oxford according to UK legislation. The intravenous injections in HSA-LR C57BL/6 mice were performed by single or repeated administrations via the tail vein. Doses of 30, 12.5, 7.5 and 5 mg/kg of peptide-PMO-CAG7 (SEQ ID NO: 192) were diluted in 0.9% saline and given at a volume of 5-6 pL/g of body weight. KIM-1 levels in C57BL6 female mice measured by ELISA (R&D cat #MKM100) with samples diluted to fit within standard curve. Values were normalised to urinary creatinine levels (Harwell) to account for urine protein concentration."}, "[5]": {"assay": "fmoc spps; Fmoc-beta-Ala-OH preloaded Wang resin (0.19 or 0.46 mmol g-1); PyBOP/NMM; PyBOP/HOAt/DIPEA (or HBTU) for PMO conjugation", "conditions": "conjugation step, UV-Vis, based on PMO extinction coefficient, scale 10 pmol or 100 pmol (so in the source)"}}, "note": "Square brackets hold non-standard residues; d marks the D form. Ends that are not written are not given here. Ahx = NCCCCCC(=O)O; βAla = NCCC(=O)O", "data": [{"substance": "DPEP 1.9 (Ac-R[βAla]RR[βAla]RFQILY[βAla]R[βAla]R[βAla]; also: PMO conjugate, site not given here)", "values": [{"measurement": "urinary KIM-1 levels", "setting": "[1]", "value": "lowest levels"}, {"measurement": "urinary NGAL levels", "setting": "[1]", "value": "lowest levels"}]}, {"substance": "eteplirsen", "values": [{"measurement": "levels of dystrophin restoration", "setting": "[2]", "value": "approximately 1 % of normal dystrophin levels"}]}, {"substance": "pip6a: prior peptide carrier AC-RXRRBRRXR-YQFLI-RXRBRXR-B conjugated to [CAG]7 PMO (SEQ ID NO: 192) (Ac-R[Ahx]RR[βAla]RR[Ahx]RYQFLIR[Ahx]R[βAla]R[Ahx]R[βAla]; also: conjugated to [CAG]7 PMO, site not given here) [reference compound]", "values": [{"measurement": "percentage hepatocyte cell viability", "setting": "[3]", "value": "cell mortality"}, {"measurement": "Recovery time after injection, Time AV ± SD", "setting": "[4]", "value": ">60", "unit": "min"}]}, {"substance": "Ac-RBRRBRRFQILYRBHBH-(Ab)-PMO (GGCCAAACCTCGGCTTACCTGAAAT; listed as DNA, chemistry not fully specified)", "values": [{"measurement": "conjugation yield", "setting": "[5]", "value": 26, "unit": "%"}]}, {"substance": "Ac-RBRRBRFQILYBRBR-(E)-PMO (GGCCAAACCTCGGCTTACCTGAAAT; peptide Ac-RBRRBRFQILYBRBR-(E) conjugated, chemistry not fully specified)", "values": [{"measurement": "conjugation yield", "setting": "[5]", "value": 39, "unit": "%"}]}, {"substance": "Pip9b2 (Ac-R[Ahx]RR[βAla]RRFQILYR[βAla]R[Ahx]R[βAla]; also: PMO conjugate, site not given here) [reference compound]", "values": [{"measurement": "Serum blood urea nitrogen levels", "setting": "[1]; 7 days after single dose of 30 mg/kg", "value": "elevated"}]}, {"substance": "DPEP 3.8 (Ac-R[βAla]RR[βAla]RFQILYR[βAla]H[βAla]H[βAla]; also: PMO conjugate, site not given here)", "values": [{"measurement": "urinary KIM-1 levels", "setting": "[1]", "value": "lowest levels"}, {"measurement": "urinary NGAL levels", "setting": "[1]", "value": "lowest levels"}]}]}
